Measurements: patent US20250361295A1 (ANTENGENE BIOLOGICS, published 2025)

How the values were obtained:
human LILRA1 = molecular target: T1, human LILRA1 (human, UniProt O75019 17-489); assay: FACS, 293F-hLILRA1 cells
T1 construct: whole, on cells; also called hLILRA1

human LILRA2 = molecular target: T2, human LILRA2 (human, UniProt Q8N149 24-483); assay: FACS, 293F-hLILRA2 cells
T2 construct: whole, on cells; also called hLILRA2

human LILRA3 = molecular target: T3, human LILRA3 (human, UniProt Q8N6C8 24-439); assay: FACS, 293F-hLILRA3 cells
T3 construct: whole, on cells; also called hLILRA3
T3 sequence (Q8N6C8 24-439): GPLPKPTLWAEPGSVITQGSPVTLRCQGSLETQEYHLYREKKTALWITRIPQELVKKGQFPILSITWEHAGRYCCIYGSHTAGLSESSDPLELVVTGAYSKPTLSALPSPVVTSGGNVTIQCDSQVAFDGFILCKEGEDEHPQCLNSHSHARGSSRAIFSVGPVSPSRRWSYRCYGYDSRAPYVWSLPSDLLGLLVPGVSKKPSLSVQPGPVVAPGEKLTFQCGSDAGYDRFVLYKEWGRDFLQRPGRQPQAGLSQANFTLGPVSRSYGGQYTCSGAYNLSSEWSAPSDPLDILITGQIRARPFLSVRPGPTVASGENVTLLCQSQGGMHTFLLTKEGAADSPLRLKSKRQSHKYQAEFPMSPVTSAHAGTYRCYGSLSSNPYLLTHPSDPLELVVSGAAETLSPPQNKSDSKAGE

human LILRA4 = molecular target: T4, human LILRA4 (human, UniProt P59901 24-499); assay: FACS, 293F-hLILRA4 cells
T4 construct: whole, on cells; also called hLILRA4
T4 sequence (P59901 24-499): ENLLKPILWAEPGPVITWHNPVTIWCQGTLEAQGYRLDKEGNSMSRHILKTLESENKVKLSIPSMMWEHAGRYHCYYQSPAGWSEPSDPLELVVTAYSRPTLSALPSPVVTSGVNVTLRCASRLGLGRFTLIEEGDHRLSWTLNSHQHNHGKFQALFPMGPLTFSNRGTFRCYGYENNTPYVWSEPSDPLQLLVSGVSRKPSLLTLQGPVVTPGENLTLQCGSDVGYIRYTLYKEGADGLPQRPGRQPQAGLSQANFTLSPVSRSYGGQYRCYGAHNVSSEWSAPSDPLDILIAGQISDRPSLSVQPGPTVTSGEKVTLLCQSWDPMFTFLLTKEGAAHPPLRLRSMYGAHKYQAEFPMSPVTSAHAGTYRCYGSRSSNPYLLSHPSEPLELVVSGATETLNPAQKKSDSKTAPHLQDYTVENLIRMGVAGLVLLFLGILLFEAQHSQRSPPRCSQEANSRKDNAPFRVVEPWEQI

human LILRA5 = molecular target: T5, human LILRA5 (human, UniProt A6NI73 42-299); assay: FACS, 293F-hLILRA5 cells
T5 construct: whole, on cells; also called hLILRA5
T5 sequence (A6NI73 42-299): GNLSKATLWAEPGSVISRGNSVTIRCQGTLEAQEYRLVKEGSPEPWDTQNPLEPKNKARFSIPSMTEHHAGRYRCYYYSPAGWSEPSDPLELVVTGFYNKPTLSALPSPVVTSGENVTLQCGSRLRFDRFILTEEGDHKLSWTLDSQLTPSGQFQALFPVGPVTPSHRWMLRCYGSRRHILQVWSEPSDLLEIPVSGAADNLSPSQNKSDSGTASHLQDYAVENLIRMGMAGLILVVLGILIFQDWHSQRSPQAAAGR

human LILRB1 = molecular target: T6, human LILRB1 (human, UniProt Q8NHL6 24-650); assay: FACS, 293F-hLILRB1 cells
T6 construct: whole, on cells; also called hLILRB1
T6 sequence (Q8NHL6 24-650): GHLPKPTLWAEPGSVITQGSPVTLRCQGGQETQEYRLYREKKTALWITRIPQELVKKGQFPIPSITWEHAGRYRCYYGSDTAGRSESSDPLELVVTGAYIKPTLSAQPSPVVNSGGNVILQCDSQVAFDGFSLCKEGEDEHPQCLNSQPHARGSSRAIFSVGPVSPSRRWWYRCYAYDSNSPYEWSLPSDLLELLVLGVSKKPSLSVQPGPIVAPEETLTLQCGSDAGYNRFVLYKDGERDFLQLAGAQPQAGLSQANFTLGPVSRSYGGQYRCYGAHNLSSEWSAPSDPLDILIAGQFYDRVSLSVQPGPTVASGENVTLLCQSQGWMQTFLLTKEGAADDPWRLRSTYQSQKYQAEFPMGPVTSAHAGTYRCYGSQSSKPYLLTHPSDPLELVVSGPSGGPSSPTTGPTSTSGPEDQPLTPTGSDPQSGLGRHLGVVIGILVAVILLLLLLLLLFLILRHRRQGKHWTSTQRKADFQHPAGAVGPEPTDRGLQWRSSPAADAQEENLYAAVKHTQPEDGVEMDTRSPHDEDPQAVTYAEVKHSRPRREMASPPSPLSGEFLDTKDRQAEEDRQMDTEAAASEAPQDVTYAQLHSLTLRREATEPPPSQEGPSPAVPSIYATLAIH

human LILRB2 = molecular target: T7, human LILRB2 (human, UniProt Q8N423 22-597); assay: FACS, 293F-hLILRB2 cells
T7 construct: whole, on cells; also called hLILRB2
T7 sequence (Q8N423 22-597): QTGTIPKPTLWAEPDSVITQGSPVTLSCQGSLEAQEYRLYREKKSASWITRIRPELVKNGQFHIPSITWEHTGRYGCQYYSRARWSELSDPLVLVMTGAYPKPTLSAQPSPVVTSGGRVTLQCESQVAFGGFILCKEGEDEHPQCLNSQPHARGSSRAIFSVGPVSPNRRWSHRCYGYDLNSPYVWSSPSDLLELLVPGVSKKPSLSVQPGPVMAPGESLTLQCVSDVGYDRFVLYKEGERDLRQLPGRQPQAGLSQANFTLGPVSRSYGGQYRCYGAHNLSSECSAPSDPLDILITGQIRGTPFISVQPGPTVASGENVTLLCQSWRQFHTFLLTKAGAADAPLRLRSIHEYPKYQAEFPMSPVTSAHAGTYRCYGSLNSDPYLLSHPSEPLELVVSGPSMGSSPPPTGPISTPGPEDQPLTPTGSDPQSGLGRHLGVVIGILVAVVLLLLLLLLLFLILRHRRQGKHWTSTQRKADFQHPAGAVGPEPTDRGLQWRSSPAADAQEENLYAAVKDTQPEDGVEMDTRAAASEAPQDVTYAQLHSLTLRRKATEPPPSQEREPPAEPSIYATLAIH

human LILRB3 = molecular target: T8, human LILRB3 (human, UniProt O75022 24-631); assay: FACS, 293F-hLILRB3 cells
T8 construct: whole, on cells; also called hLILRB3
T8 sequence (O75022 24-631): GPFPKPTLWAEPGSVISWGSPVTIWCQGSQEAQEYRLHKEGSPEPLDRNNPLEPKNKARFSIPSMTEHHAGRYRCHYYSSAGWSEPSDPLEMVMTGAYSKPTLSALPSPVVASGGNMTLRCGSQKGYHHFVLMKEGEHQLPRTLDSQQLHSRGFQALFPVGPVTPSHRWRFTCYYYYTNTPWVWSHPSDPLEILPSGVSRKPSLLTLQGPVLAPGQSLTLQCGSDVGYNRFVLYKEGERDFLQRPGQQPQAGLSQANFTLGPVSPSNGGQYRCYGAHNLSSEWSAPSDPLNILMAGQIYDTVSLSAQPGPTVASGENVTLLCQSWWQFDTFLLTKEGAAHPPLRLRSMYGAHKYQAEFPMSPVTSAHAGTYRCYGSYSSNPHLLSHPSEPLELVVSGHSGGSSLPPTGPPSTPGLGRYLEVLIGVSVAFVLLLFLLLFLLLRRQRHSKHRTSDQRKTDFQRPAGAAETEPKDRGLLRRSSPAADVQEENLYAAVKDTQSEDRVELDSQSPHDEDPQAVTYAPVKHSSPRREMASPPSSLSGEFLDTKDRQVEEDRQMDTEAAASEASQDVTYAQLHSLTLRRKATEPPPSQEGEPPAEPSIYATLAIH

human LILRB4 = molecular target: T9, human LILRB4 (human, UniProt Q8NHJ6 22-448); assay: FACS, 293F-hLILRB4 cells
T9 construct: whole, on cells; also called hLILRB4
Procedure: The subcloning plates were screened by protein or cell-based ELISA, and the subclones with good binding ability were expanded to 24-wells for confirmation tests. The specificity and cross-reactivity of these subclones were confirmed with FACS analysis. […] Fluorescent dye-conjugated secondary antibody was used to detect the binding of the primary antibody with the cells. Median fluorescence intensity (MFI) was measured by FACS analysis. […]

human LILRB5 = molecular target: T10, human LILRB5 (human, UniProt O75023 24-590); assay: FACS, 293F-hLILRB5 cells
T10 construct: whole, on cells; also called hLILRB5
T10 sequence (O75023 24-590): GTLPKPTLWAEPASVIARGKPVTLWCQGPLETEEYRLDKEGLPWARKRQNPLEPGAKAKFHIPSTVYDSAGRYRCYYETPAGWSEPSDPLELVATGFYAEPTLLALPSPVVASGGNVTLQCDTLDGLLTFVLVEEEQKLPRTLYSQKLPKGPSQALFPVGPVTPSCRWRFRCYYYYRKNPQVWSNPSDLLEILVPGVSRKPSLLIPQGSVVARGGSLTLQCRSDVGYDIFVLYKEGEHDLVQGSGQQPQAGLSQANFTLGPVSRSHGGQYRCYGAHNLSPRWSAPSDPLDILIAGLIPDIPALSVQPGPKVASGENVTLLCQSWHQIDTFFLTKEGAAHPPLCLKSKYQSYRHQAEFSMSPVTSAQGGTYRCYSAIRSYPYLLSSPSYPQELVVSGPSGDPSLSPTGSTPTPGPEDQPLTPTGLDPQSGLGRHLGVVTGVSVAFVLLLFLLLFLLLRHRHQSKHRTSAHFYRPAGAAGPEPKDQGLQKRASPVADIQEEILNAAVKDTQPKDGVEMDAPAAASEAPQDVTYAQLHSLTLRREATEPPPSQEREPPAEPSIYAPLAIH

T2 sequence (Q8N149 24-483): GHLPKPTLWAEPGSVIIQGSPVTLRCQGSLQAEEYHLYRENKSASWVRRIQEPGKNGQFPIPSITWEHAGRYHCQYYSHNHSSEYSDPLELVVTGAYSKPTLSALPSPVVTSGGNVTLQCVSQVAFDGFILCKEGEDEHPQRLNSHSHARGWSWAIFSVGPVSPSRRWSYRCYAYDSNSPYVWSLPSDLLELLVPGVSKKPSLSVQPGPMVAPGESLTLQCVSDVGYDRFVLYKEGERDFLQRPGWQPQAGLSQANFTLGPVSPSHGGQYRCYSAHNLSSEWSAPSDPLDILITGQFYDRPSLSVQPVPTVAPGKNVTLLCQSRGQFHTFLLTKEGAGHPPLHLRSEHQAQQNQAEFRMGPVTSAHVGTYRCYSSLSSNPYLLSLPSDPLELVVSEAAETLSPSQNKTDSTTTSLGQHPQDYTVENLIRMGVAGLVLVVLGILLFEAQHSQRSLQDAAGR
T1 sequence (O75019 17-489): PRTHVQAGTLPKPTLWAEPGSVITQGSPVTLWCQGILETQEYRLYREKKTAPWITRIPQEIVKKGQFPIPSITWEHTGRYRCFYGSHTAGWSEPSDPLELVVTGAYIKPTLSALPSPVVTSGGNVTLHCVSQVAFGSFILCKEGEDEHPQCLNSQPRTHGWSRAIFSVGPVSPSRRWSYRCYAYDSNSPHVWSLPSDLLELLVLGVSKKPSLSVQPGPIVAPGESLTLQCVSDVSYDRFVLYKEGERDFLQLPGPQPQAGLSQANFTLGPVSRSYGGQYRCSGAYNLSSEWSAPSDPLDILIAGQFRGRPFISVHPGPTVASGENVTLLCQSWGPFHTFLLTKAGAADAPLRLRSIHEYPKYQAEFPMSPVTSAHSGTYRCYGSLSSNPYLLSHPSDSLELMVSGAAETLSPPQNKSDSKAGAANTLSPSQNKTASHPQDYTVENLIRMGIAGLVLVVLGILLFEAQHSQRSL

Binder | MFI (human LILRA1) | MFI (human LILRA2) | MFI (human LILRA3) | MFI (human LILRA4) | MFI (human LILRA5) | MFI (human LILRB1) | MFI (human LILRB2) | MFI (human LILRB3) | MFI (human LILRB4) | MFI (human LILRB5)
25-G9-G4-C12 (antibody, V domains shown, mouse monoclonal hybridoma antibody) VH: EVQLVESGGDLVKPGGSLKLSCAASGFTFSSHGMSWVRQTPDKRLEWVATINSGGYYTYYPDSVKGRFTISRDNAKNTLYLQMSSLKSEDTAMYYCARGQLGNWYFDVWGAGTTVTVSS VL: DIVMTQSPAIMSASPGEKVTITCSASSSVSYMHWFQQKPGTSPKLWIYSTSNLASGVPARFSGSGSGTSYSLTISRMEAEDAATYYCQQRSSYPLTFGAGTKLELK | 24.3 MFI | 21.7 MFI | 18.6 MFI | 22.7 MFI | 25.3 MFI | 26 MFI | 32.8 MFI | 25.2 MFI | 383 MFI | 22.9 MFI
4-E6-E4-B12 (antibody, V domains shown, mouse monoclonal hybridoma antibody) VH: EVQLKESGAELVKPGASVKLSCKASGYTFTSHWMHWVKQRPGQGLEWIGEINPSNGRTNYNEKFTSKATLTVDQSSSTAYMQLSSLTSEDSAVYYCARGNLTTVVPFDYWGQGTALTVSS VL: DIVMTQSPSSLSASLGGKVTITCKASQDINKFIAWYQHKPGKGPRLLIHFTSTLQPGIPSRFSGSGSGRDYSFSISNLEPEDIATYFCLQYDLLLTFGGGTKLEIK | 24.4 MFI | 21.9 MFI | 23.7 MFI | 23.2 MFI | 32.6 MFI | 23.6 MFI | 58 MFI | 27.1 MFI | 1530 MFI | 21.4 MFI
48-E11-H7-B5 (antibody, V domains shown, mouse monoclonal hybridoma antibody) VH: EVQLVESGGGLVKPGGSLKLSCAASGFTFSSYAMSWVRQTPEKRLEWVASITIGDDTYYPDSVKGRFTISRDHAKNILYLQVSSLRSEDTAMYSCARGVNSYGSSYRYFDVWGAGTTVTVSS VL: DIVMTQSHKFMSTSVGDRVSITCKASQDVSTAVAWYQQKPGQSPKLLIYWASTRHTGVPDRFTGSGSGTDYTLTISSVQAEDLALYYCQQHYSIPFTFGAGTKLEK | 25.1 MFI | 22.6 MFI | 24.1 MFI | 24.3 MFI | 359 MFI | 27.3 MFI | 45.8 MFI | 26.7 MFI | 2760 MFI | 18.9 MFI
36-F4-H1-D9 (antibody, V domains shown, mouse monoclonal hybridoma antibody) VH: EVKLLESGGGLVQPGGSLKLSCAASGFDFSRYWMIWVRQAPEKGLEWIGEINPDSSTINYTPSLKDKFIISRDNAKNTLYLQMSKVRSEDTALYYCARPYYRYDVGYFDVWGAGTTVTVSS VL: DIVMTQAPKVLLVSAGDRVTISCKASQSVSNAVVWYQQKPGQSPKLLIFYASNRYTGVPDRFTGSGYGTDFTFSISTVQAEDLAVYFCQQDYSSPWTFGGGTKLEIK | 22.1 MFI | 16.5 MFI | 18.6 MFI | 20.7 MFI | 20.3 MFI | 25.7 MFI | 26.5 MFI | 23.5 MFI | 898 MFI | 17 MFI

Second part, the binder after the results:

MFI (human LILRA1) | MFI (human LILRA2) | MFI (human LILRA3) | MFI (human LILRA4) | MFI (human LILRA5) | MFI (human LILRB1) | MFI (human LILRB2) | MFI (human LILRB3) | MFI (human LILRB4) | MFI (human LILRB5) | Binder
27.3 MFI | 28.1 MFI | 24.5 MFI | 27.2 MFI | 27.9 MFI | 29.6 MFI | 34.5 MFI | 602 MFI | 1290 MFI | 22.2 MFI | 42-C8-A12-F3-D11 (antibody, V domains shown, mouse monoclonal hybridoma antibody) VH: EVHLVESGGDLVKPGGSLKLSCAASGFTFSSHGMSWVRQTPDKRLEWVATISSGGIYTYHPDSVKGRFSISRDNAKKTLYLQMSSLKSEDTGIYYCTRGQVGNWYFDVWGAGTTVTVSS VL: DIVITQSPAIMSASPGEKVTINCSASSSVSYMHWFQQTPGTSPKLWIYSTSNLASGVPARFSGSGSGTFYSLTISRMEAEDAATYYCQQRSSYPLTFGAGTKLELK
21.6 MFI | 17.8 MFI | 17.2 MFI | 19.6 MFI | 17.2 MFI | 20.8 MFI | 28.3 MFI | 19.7 MFI | 588 MFI | 18.8 MFI | 27-D11-C2-A10 (antibody, V domains shown, mouse monoclonal hybridoma antibody) VH: EVQLVESGGGLVQPGGSRKLSCAASGFTFSVFGVHWVRQAPEKGLEWVAYISSGSNTIHYADTVKGRFTISRDIPKNTLFLQMTSLRSEDTAMYYCARSSGTGAMDYWGQGTSVTVSS VL: DIQMTQSTSSLSASLGDRVSISCRASQDISNYLNWYQQKPDGAVKLLIYYTSRLHSGVPSRFSGSGSGTDYSLTISNLDQEDIATYFCQQGNTLPWTFGGGTKLELK
22.6 MFI | 19.7 MFI | 21.7 MFI | 23 MFI | 22.6 MFI | 25.4 MFI | 28.8 MFI | 26.7 MFI | 1710 MFI | 21.6 MFI | 2-H8-C9-F7-E2 (antibody, V domains shown, mouse monoclonal hybridoma antibody) VH: EVQLQQSGAELVKPGASVKLSCKASGYTFTNYWMHWVKQRPGQGLEWIGEINPSNGRTNYNEKFKSKATLTVDKSSSTAYMQLSSLTSEDSAVYYCARGSLTTVVPFDYWGQGTTLTVSS VL: DIQMTQTPSSLSASLGGKVTITCKASQDINNYIAWYQHKPGKGPRLLIHYTSTLQPGIPSRFSGSGSGRDYSFSISNLEPEDIATYFCLQYDILLTFGGGTKLEK
27.5 MFI | 21.6 MFI | 25.2 MFI | 26.2 MFI | 28.2 MFI | 27.7 MFI | 32.2 MFI | 26.1 MFI | 3950 MFI | 17.8 MFI | 7-B4-C1-C9 (antibody, V domains shown, mouse monoclonal hybridoma antibody) VH: EVQLQQSGTELVKPGASVKLSCKASGYTFTNYWMHWVKQRPGQGLEWIGEINPSNGRTNYNEKFKTKATLTVDKSSSTAYMQLSSLTSEDSAVYYCARSTYYGYDWYFDVWGAGTTVTVSS VL: DIVLTQSPSSMYASLGERVTITCKASQDINSYLSWFQQKPGKSPKTLIYRANRLLDGVPSRFSGGGSGQDYSLTISSLEHEDMGIYYCLQCDEFPHTFGGGTKLEIK
25.6 MFI | 24.8 MFI | 22.5 MFI | 24.4 MFI | 26.8 MFI | 38.4 MFI | 38.2 MFI | 31.6 MFI | 84.9 MFI | 26.6 MFI | 44-F10-B6-D4 (antibody, V domains shown, mouse monoclonal hybridoma antibody) VH: EVHLVESGGGLVKPGGSLKLSCAASGFTFSSYAMSWVRQTPEKRLEWVATISSGGSYIYYPDSVKGRFTISRDNAKNTLYLQMSSLRSEDTAMYYCARQDWDGGDYYAMDYWGQGTSVTVSS VL: DIVMTQSPSSLAVSAGEKVTMSCKSSQSVLYSSNQKNFLAWYQQKPGQSPKLLIYWASTRESGVPDRFTGSGSGTDFTLTISSVQAEDLAVYYCHQYLSSLTFGAGTKLELK
